This experiment concerns the target CY5 fluorescently labeled CAS9 protein (S. pyogenes), Q99ZW2. The experiment can be described thus: fluorescence titration of 5 nM CY5-CAS9 with increasing peptide, quadratic fit. As to conditions: remark: other sources report otherwise.

Non-standard residues stand in square brackets, D forms with d. No end group written: not given here. βAla = NCCC(=O)O

Chain of CY5 fluorescently labeled CAS9 protein (S. pyogenes), Q99ZW2 (Q99ZW2 whole entry): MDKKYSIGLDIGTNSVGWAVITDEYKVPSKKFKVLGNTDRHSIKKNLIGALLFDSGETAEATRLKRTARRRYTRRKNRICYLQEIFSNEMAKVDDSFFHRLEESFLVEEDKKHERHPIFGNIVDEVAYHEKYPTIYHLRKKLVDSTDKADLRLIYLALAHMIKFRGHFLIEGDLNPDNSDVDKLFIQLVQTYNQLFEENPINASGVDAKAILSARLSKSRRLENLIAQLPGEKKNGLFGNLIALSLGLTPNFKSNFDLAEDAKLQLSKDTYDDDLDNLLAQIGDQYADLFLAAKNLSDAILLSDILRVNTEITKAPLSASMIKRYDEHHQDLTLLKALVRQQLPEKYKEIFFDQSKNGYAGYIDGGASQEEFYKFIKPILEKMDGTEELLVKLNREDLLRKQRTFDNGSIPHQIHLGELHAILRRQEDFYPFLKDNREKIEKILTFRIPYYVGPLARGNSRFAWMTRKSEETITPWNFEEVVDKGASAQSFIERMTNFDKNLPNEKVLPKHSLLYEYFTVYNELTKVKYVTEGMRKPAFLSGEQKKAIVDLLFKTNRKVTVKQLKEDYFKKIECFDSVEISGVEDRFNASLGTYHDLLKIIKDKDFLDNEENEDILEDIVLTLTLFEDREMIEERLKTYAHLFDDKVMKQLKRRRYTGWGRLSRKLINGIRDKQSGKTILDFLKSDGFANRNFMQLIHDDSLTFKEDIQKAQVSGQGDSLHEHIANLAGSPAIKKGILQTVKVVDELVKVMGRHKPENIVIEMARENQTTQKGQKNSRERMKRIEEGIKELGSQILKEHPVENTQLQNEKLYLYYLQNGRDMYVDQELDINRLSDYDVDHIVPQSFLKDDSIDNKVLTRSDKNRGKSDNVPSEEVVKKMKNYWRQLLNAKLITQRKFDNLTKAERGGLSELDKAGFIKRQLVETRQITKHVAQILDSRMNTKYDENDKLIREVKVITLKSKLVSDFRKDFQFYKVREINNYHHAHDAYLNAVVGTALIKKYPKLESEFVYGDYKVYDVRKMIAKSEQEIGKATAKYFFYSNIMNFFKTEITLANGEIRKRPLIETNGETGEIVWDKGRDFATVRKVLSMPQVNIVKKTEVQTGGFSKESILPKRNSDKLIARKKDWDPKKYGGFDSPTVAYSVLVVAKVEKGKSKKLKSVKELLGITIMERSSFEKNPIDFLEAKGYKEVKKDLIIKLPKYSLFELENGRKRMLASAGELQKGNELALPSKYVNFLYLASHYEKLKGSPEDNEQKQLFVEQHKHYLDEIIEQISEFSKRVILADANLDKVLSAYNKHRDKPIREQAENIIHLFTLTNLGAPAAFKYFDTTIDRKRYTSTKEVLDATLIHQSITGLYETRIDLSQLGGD

In turn, GLWRALWRLLRSLWRLLWKV (also: acetate salt) [CADY] returned a Kd above 100 nM. Molecule [βAla]LWRALWRLWRSLWRLLWKA (also: acetate salt) [VEPEP-6] yielded an equilibrium dissociation constant (Kd) above 100 nM.

Source of the values: patent US20190211317A1, “PEPTIDES AND NANOPARTICLES FOR INTRACELLULAR DELIVERY OF GENOME-EDITING MOLECULES” (Aadigen, LLC, priority 2016, published 2019).
